Here are results for 21 sequences from a protein production outcome set (Wang et al. 2014).
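Further: failed if final PepcDB status was selected cloned or expressed and not failed if soluble or beyond.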

The nature of this data set: label from the status in PepcDB records.
With “MKIRVDDITDQPKILSFQEPSEAFPSLAELQATGESEFLSPLMVELAVSKEYGHIRVKGSVAVKIRFVCSRCLVPFDADISSAFTMFYSEGSRIDSDEDEIELAEEDLVSVFYEGDEIDFAPEIAEQVIMELPLKPLCGEGCKGLCVTCGADLNEGECGCERTTFNVKFSALKNFKVEKLEHHHHHH”, the protein production result is on record as “not failed”.

As for “MDLVKIDETLDDLQIKDIHIIQKKEGFRFGVDAVLLANYAKVKSNQTVIDLCSGTGIIPFIIQGKKSPRHITGIEIQEDMVQMANRTVLYNKFQEKIKFINEDIKNLAELKKLERVDVVTVNPPYKLRNSGIVNEFDKNAIARHEICCTLEDVIKAARTLLKDNGRLFMVHRPERLADILCLMREYKIEPKSIKMVYPSVNKAPNIVLIEGQRDGGAFLKWEKSLYIHKENGEYTEELNEIYGR”, the protein production entry is given as “failed”.

As to “MEGLIPFLYKAIVMYKREGSFSSVLLSDHHSPSNAGYYMRLPGDSSSRFRTSDLRRFGTDRFGMLETTPSSSPSRVSTRNITKRT”, the protein production result is on record as “failed”.

As to “MSAPCCGCGKTLDVAAMHARQRRVLWWVLAINAGSFALMLAGALHSGAASLLSGSLDNLGDALTYALSLAVVGASMAAKARVALLKAGLILLAALAVAAEIGWKLAHPQVPLFQSMGLVAAANFLANLVCLRLLWPYRDGDINLASAWACSRNDVYEGVAVLAASGAVWALGSGWPDLLIAVGLLVVFLRSAWQVARRAWAELGTAG”, the protein production entry is listed as “failed”.

With “MEAATWILFTLGVSLILAKIGDSLVERFELPGVLGELLVGIILGNLVYFGVISSEYLPITAGSSEVIDFMAKLGVVFLLFLGALDTDLNLIKRTGITAVVSTILGVFVPLILGYLGLRWLGYDNKEAFAGGVLLTATSIGLTVRVMMDLGVLRSEVGAASLSASVIDDFLGIALIIFAVGSGSLLGLGIKIIIFFLITGVVGWYFIDHYLKFAERLGVEKGVLGFVLGMMLIFSALAEGWFAAAIEGAFMMGLILSKTAEGKRLLEEVRSIGYGFLIPIFFVHTGAMLNFKVFENLEAIKLAVVLSVIAIVGKVAGRGFGAWITAWGRGKDFLFTRENFRMSFQMGIGSIPRTEVALVALMVAIHGGAISPDDAPKFIAATLIFITISVLITPPLLKWAFREEILAQKKLLLENRKEKIESKKRGTR”, the protein production result is “failed”.

For the sequence “SLSEDKMDLYLQQGMYGPLETKPDERHLFLGSLRERVVLALTKGQVLRSKPYKEAEHELKNSHNVTLLINGELQYQSYSSYIQMASRYGVPFKIVSDLQFHTPLGIVIAADIAVNRELIYIQDDIYNRSVLKS”, the protein production result was “not failed”.

In the case of “MVQIQGCVVAAALCAVITLIAMQWLMAFDAANLVMLYLLGVVVVALFYGRWPSVVATVINVVSFDLFFIAPRGTLAVSDVQYLLTFAVMLTVGLVIGNLTAGVRYQA”, the protein production result was “not failed”.

With “MNNIRLLNQNDLDSYIELMKFGHHNYEWDRYYLENVSIDRLKTILSNHTDYWNIFGAFEDDELVATCTLKQMNYVGKCHKAILENNFVKNNDEIVNRELINHIIQYAKEQNIETLMIAIASNNISAKVFFSSIGFENLAFEKNASKIGNEYFDENWLIYSTTE”, the protein production entry was “failed”.

Consider “TGPQGPPGPAGPKGAKGETGPQGPPGPAGPKGAKGDSGVPLSYEFTQKVESSNGTAVFGLLSNGFVEVRITGSYSSDVFNIPYNYRPLKAGTQMALFSTSGVGVAKVGEDKITIQGYSRNAQCSGTVLYPHREF”, for which the protein production result was “failed”.

With “RRLVTYVLVHGTHSAGAFWTPIARELGLRGHRVVMVDQPRHGAEAFVAESYQRQDLAAMAVEPSPLKGLGLDDYEARVAGIVRRAARNGPVVLVGHSLGGVSVSRVGEAVPHLLHHICYMAAFCPSRVLPTADACTAAPENANAVSPVELTVGDPDRLGVLRLNFRTGVSGELALLKEMICADYPDADFRRILAGMQTDEPVAAYAGRAVGRAGRWGRIPRTYLRFGRDRTIATALQDRVIAEADAATPGNGFRVHDFPEASHVGPLDPTPVADVLDRLA”, the protein production result is “failed”.

For the sequence “MTKQQKGFVTGQPTGALNLSDILDSEELGEYHLMSAAIITGNTVDFSGLGAGPDDPFEIASITKIFTGELLRLQIERGEITESTAVGDVLGERVADSLIRDITVEELANHTSGLPRLGNVGLRPFMATFFDKNPYKDLSADRVISISTTSKLNSRGEFHYSNLGFALLGQVLARNAGLTFDQLLDRDLLAPLNLNNTKLMTPESLAQDAPQGFSTPGKQVEAWEMDGFLPAAGLRSTARDMAVFCQYLFTKGPAPFTWQSLESAPEIVWHNGESFGYSSVLFFNTATTTAIFVAADVATSVFPIGHELLMANSTRQESKLEHHHHHH”, the protein production entry was “failed”.

For “MHVEQTRINMQSQGQSHQLPSAAHILLDQNPNSTGSNLVVKQNDIQSLSSVGLLELAHREYQAVDYESAEKHCMQLWRQDSTNTGVLLLLSSIHFQCRRLDKSAQFSTLAIKQNPVLAEAYSNLGNVFKERGQLQEALDNYRRAVRLKPDFIDGYINLAAALVAARDMESAVQAYITALQYNPDLYCVRSDLGNLLKALGRLEEAKACYLKAIETCPGFAVAWSNLGCVFNAQGEIWLAIHHFEKAVTLDPNFLDAYINLGNVLKEARIFDRAVAAYLRALNLSPNNAVVHGNLACVYYEQGLIDLAIDTYRRAIELQPNFPDAYCNLANALKEKGQVKEAEDCYNTALRLCSNHADSLNNLANIKREQGYIEEATRLYLKALEVFPDFAAAHSNLASVLQQQGKLKEALMHYKEAIRIQPTFADAYSNMGNTLKELQDVSGALQCYTRAIQINPAFADAHSNLASIHKDSGNIPEAIQSYRTALKLKPDFPDAYCNLAHCLQIVCDWTDYDIRMKKLVSIVTEQLEKNRLPSVHPHHSMLYPLTHDCRKAIAARHANLCLEKVHVLHKKPYNFLKKLPTKGRLRIGYLSSDFGNHPTSHLMQSVPGLHDRSKVEIFCYALSPDDGTTFRHKISRESENFVDLSQIPCNGKAADKIFNDGIHILVNMNGYTKGARNEIFALRPAPIQVMWLGYPGTSGASFMDYIITDSVTSPLELAYQYSEKLSYMPHTYFIGDHKQMFPHLKERIIVCDKQQSSVVDNVTVINATDLSPLVENTDVKEIKEVVNAQKPVEITHKVAELPNTTQIVSMIATGQVQTSLNGVVVQNGLATTQTNNKAATGEEVPQNIVITTRRQYMLPDDAVVYCNFNQLYKIDPQTLESWVEILKNVPKSVLWLLRFPAVGEQNIKKTVSDFGISPDRVIFSNVAAKEEHVRRGQLADICLDTPLCNGHTTSMDVLWTGTPVVTLPGETLASRVAASQLATLGCPELIARTREEYQNIAIRLGTKKEYLKALRAKVWKARVESPLFDCSQYAKGLEKLFLRMWEKYENGELPDHISAV”, the protein production entry was “failed”.

With “MKTEKEKREEEEEDLRPFRIHAYSKEELAMLYNPTYCISNAIYTLAAWIRHNKALKGELEKVGYNKYRRTFTPLEVKVLVKYLGEP”, the protein production entry is given as “failed”.

On to “MADDIRILMCPPDHYDVDYVINPWMEGNIHKSSQERAVEQWKKLHQTIKECAIVDLVKPAKGWPDMVFTANAGLVLGENVVLSRFYHKERQGEEPYFKAWFEENGFTVYELPQDLPFEGAGDALFDREGRWLWAGYGFRSELDSHPYIAKWLDTEVVSLRLIDERFYHLDTCFCPLSGGYLLYYPPAFDAYSNRVIEMRIPPEKRIIVEELDAVNFACNAVNVNDIIIMNLVSRTLKEKLAEAGFKVRETPLTEFLKAGGAAKCLTLRVTEPILPDVHATVSIESRVIRMEGHLLDAGILNQALDLVVENSGSFRVLNFNLGVERNSTSSAEVRVSAPSHQIMEEIMTELIDLGAVPPPQELCDINTETVTQGGVAPDDFYVSTIYPTEVRVNCEWVQVTGQRMDAAIVVTSNPPSARCVLLRDLQVGDRVMVGVEGIRTIKKVESHEGGTRKENKEFAFMAAGVSSERRVELLVEQIAWEMRQIRDQGGKIVVTAGPVVIHTGGAQHLSHLVREGYVHALLGGNAIAVHDIEQATMGTSLGVDMQRGIPVRGGHRHHLKIINSVRRYGGIRQAVEAGFISKGVMYECVKNNIPYCLAGSIRDDGPLPDTEMNLVRAQSRYSELIQGADMILMLSSMLHSIGVGNMTPSGVKMVCVDINPAVVTKLSDRGSVESVGVVTDVGLFLSLLVRQLQQLTRPYSLAETL”, for which the protein production result was “failed”.

As to “MEYALLQHYWWFLVSLLGALLVFLLFVQGGQSFLFSLGKDELTQKMMVNSTGRKWEFTFTTLVTFGGALFASFPLFYSTSFGGAYWVWMLILFCFIIQAVSYEYQSKHGNVWGRKTYQILLFINGVLAPVLLGTAVSTFFTGSSFVVNKMAMFDLSGGNQIVSAWQPFNGWQLRGLEAVLNLWNVVLGLAVFFLARVSALLYFINNIDDESLYAAAKRRLWANTVAFLIFFLAYIAFLLTTEGFAVNPVSKEVYMEPYKYLYNFLDMPAVLAVFLLGVILVLGGIGLTLLRKGFKRGIWLHGTGTVLTVLALLLVAGWNDTSWYPSTYDLQSSLTIENASSSHFTLKVMSYVSLLIPFVLAYIFYAWRALDIRKITKKEMEQDDHVY”, the protein production result is “failed”.

As for “MKRKLTTKFIESQKPNPSKRLDFRDELMPGLVLRISTSGTKTFCLHKRISGKMRRLTIGRFGVVSLAEARERVRKVLYEIETGRFEDRTGVEVETKPTLGDVIPDYIEKHAKVHNRDWKRKEALLAKFAALHVKRIDEIKRADVVKACDLIHKSAPVSANRALAHLKHLMGWCVERGMIDASPIAGMKPLSKERSRERVLTDDELGALWTACDAEGYPFGDCMKLLILSGQRRAEVAEMRWTELDLEKRLWTLPSQRAKNGRQHTVPITDAMIDVLRRVPRFLGSDYVFTTTGKSPVSGFGRLKDRLDKALPEGTEPWIIHDLRRTMSTNMAMLGVPQPVTEALLNHKTGVVSGVAAIYNVYSYTDEKCEALEQWNRHLTKMTQGHSDRLAGKMSAQFSA”, the protein production result is “failed”.

On to “RDLDAVLQAIVQRARSLLGTDVAYLTLHDEAEGDTYMRVTEGSVAARFQQLRLGMGEGLGGLVAQTARPYVTPDYFNDERFQHTRVIDGGVRDEGLVAILGVPLMIGPQVIGVLFAADRRARVFEREQIALLGSFAALAAAAIDTANLLTETRSALDRLARANEIIRDRSGVIERASDVHDRLAELVLRGG”, for which the protein production entry is recorded as “failed”.

Regarding “MPCPPNVSMMLGKEGPAADSERVTLWRDHHLSHTHAVLWTVILVATVGDILLTMTGLTVGLQEGNAVVSTMLAEFGLAGLWLVKFGAMLWLVAGWRLLSERNATVFLALFAVVTLAVVAYNSVTILQYRGVITAVAGI”, the protein production result was “failed”.

On to “KRRMELVGEYAGGITLIEDFAHHPTAIRLTLGAIAEHYPGRRIIACFEPRSNTTSRNIFQHELSECFGDAAIVVLGKVNRPERYAPEERLDAALLCRELKANGKRVFAAGSENYPEDIVRFIEAEQQPGDVVVLLSNGSFSGLKEMLAESFQKNS”, for which the protein production result was “failed”.

Turning to “MKQTPPLISFITICYNGLDDTCMLIESLRDTISSVSYEIIVVDNASRQDEASLIQERYPFVRTLRSEKNLGFSGGNNLGIQIAQGKYLFLINNDTYLTEDGLPALIERLESDPRIGAVSPKIRFAFPPQSIQFAGYTKLSRYTMRNKALGMGCPDDGTFDTPRPSAYLHGAALMLKREVIWKAGLMPEIYFLYYEELDWCTSMTRAGYQLWYEPRCTIFHKESQSTGRQSPLRTFYMMRNRMLYAWRNLPGMERCLAIAYQMLIVAPKDSLCFVLKGEPKLAKAVWHGVKGFWKLCLEHHHHHH”, the protein production result is “not failed”.

“MQPLVSTVLVPSQGIPLCCNEICLKSLQKEVAMPLKDLLIALVVIVAWGVNFVVIKVGLDGLPPMLLGALRFLLVAFPAILLVRRPKLPWRWLIAYGATISLGQFAFLFQAMYSGMPPGLASLILQSQAFFTLGFAALFLGERLRLASVLGLLVAAGGLALIGSEDGGHVPMLALVLTLCGGAMWGLGNIITRRFGSVDLVALVIWGGLIPPLPFLALSWWLEGPERIGHALANISWSSVLALAYLAFVATMLGYSLWSKLLSRHPAGKVAPFSLLVPVIGLSSSALLLGERLTATQGWGALLVMAGLLVNVFGARIGQRLRAANA”: the protein production entry was “failed”.
